Experiments:
[1] = molecular target: T1, APPT, Sfp-like phosphopantetheinyl transferase (PPTase) from Anabaena sp. PCC7120 (Anabaena sp. PCC7120, UniProt P37695 1-237); test: read from Km, Michaelis-Menten kinetics of phosphopantetheinylation (HPLC)
T1 construct: also called Anabaena PPTase
T1 sequence: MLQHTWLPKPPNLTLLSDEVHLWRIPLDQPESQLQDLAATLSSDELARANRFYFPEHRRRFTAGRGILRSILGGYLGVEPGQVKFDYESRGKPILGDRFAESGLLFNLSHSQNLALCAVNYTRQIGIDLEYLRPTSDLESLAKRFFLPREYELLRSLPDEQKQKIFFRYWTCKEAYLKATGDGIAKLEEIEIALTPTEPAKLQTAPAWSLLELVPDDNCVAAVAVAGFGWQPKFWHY

[2] = molecular target: T2, SPPT, Sfp-like phosphopantetheinyl transferase (PPTase) from Synechocystis sp. PCC6803 (Synechocystis sp. PCC6803, UniProt Q55185 1-246); test: as above
T2 construct: Recombinant protein with a His-tag from pET28b, made in E. coli
T2 sequence: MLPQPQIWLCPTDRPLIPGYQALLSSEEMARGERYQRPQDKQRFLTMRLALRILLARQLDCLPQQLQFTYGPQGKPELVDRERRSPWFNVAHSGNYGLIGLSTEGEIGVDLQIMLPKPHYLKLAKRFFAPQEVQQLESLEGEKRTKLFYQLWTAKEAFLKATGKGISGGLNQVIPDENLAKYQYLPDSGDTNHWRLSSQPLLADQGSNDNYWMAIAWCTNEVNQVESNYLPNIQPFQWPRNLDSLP

B1: SFACP, ACP of the FAS from Synechocystis (other)
chain: MDQEIFEKVKKIVVEQLEVDPDKVTPDATFAEDLGADSLDTVELVMALEEEFDIEIPDEVAETIDTVGKAVEHIESK
binding result [1]: binds
binding result [2]: binds

From patent US20210087522A1 (UNIVERSITY OF FLORIDA RESEARCH FOUNDATION, published 2021)
